Source: patent US20240101959A1, “USE OF IL-2R-BETA-GAMMA AGONIST PEPTIDES IN CELL MANUFACTURING” (MEDIKINE, INC., priority 2022, published 2024)
Positions of bridges follow the written chain, without caps; N, C: chain ends. No end group written: not given here.

T1: hu-IL-2Rβ subunit (human, UniProt P14784 27-240, limits assumed)
T1 construct: also called human interleukin-2 receptor subunit β; CD122
T1 sequence (looked up): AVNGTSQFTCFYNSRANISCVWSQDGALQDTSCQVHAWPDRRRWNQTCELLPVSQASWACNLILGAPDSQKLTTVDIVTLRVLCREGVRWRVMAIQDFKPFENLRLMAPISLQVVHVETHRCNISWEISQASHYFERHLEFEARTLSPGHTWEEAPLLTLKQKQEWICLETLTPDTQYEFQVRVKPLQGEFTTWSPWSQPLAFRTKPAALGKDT


What follows are binders tested against T1, hu-IL-2Rβ subunit (assay: phage ELISA competition assay).
For QPCWLAQVGDLCDLLWPGPL [SEQ ID NO 79], the IC50 was under 100 µM.
VMSPTRWLPCWIAKLGELCDLE [SEQ ID NO 88] was tested, and the IC50 was under 100 µM.
For SNPCWMAQLWELCDLE [SEQ ID NO 182], the IC50 was under 100 µM.
In the case of YKPCWIAQLGELCELE [SEQ ID NO 183], the IC50 is reported as under 100 µM.
For WQPCWMAQLGELCDLE [SEQ ID NO 184], the IC50 was under 100 µM.
With WKPCWLAQLGDLCEME [SEQ ID NO 185] the IC50 was under 100 µM.
For WLPCWMAKLGDLCELE [SEQ ID NO 186], the IC50 was under 100 µM.
WLPCWMAQLGELCVME [SEQ ID NO 187] gave an IC50 of under 100 µM.
LHPCWMAQLGELCDLE (disulfide 4-13 (inferred)) [SEQ ID NO 188] was tested, and the IC50 was under 100 µM.
SLPCWMAQLGELCDLV [SEQ ID NO 189] showed an IC50 of under 100 µM.
In the case of WKPCWMAGLGELCELD [SEQ ID NO 190], the IC50 is reported as under 100 µM.
WWPCSSAELGEICDFD [SEQ ID NO 191] gave an IC50 of under 100 µM.
WFPCWMAQLGQLCDLE [SEQ ID NO 89] showed an IC50 of under 100 µM.
In the case of WQPCWRAKLGELCDLE [SEQ ID NO 192], the IC50 is reported as under 100 µM.
WSPCWIATLGELCDLD [SEQ ID NO 193] gave an IC50 of under 100 µM.
WNPCWIAQLGDLCDMV [SEQ ID NO 194] was tested, and the IC50 was under 100 µM.
WLPCWLAHLGDICDLQ [SEQ ID NO 195] was tested, and the IC50 was under 100 µM.
Binder WLSPPSYLPCWMAQLGELCDLV [SEQ ID NO 196] has an IC50 of under 100 µM.
WDVHAIRNPCWLAKLGDLCDLD [SEQ ID NO 197] showed an IC50 of under 100 µM.
In the case of GAGVLHRWPCWMAKLGDLCDLD [SEQ ID NO 198], the IC50 is reported as under 100 µM.
Work on DTGRDGWKPCWMALLGELCELE [SEQ ID NO 199] yielded an IC50 of under 100 µM.
For EQGMLGYFPCWKALLGDVCDLD [SEQ ID NO 200], the IC50 was under 100 µM.
Work on WRVTASLQPCWMAQLGELCDLN [SEQ ID NO 201] yielded an IC50 of under 100 µM.
WRPCWRAYLGELCDLEAMPRAT [SEQ ID NO 90] showed an IC50 of under 100 µM.
GQVVETSLPCWEAQLGELCVLD [SEQ ID NO 202] showed an IC50 of under 100 µM.
In the case of TVGQFEWYPCSTAQLGELCDLD [SEQ ID NO 203], the IC50 is reported as under 100 µM.
With ALVGGTFYPCYVAHLGELCDIE (disulfide 10-19 (inferred)) [SEQ ID NO 204] the IC50 was under 100 µM.
IDRADGWKPCWIAQVGELCVLE [SEQ ID NO 205] gave an IC50 of under 100 µM.
For YRRERVEFPCWLAQLGELCDKE [SEQ ID NO 206], the IC50 was under 100 µM.
In the case of AVSHGNWLPCYIAQLGELCDLD [SEQ ID NO 207], the IC50 is reported as under 100 µM.
Work on IPKGESWFPCWMAAMGELCDLE (disulfide 10-19 (inferred)) [SEQ ID NO 208] yielded an IC50 of under 100 µM.
For WYPCWIAQLGEVCDLEKQTGSV [SEQ ID NO 209], the IC50 was under 100 µM.
In the case of WYPCWMAHLGDVCDLESFGQTE [SEQ ID NO 210], the IC50 is reported as under 100 µM.
YKPCQMAQLGELCDLDVDNKAE [SEQ ID NO 211] gave an IC50 of under 100 µM.
For IRSCSPCWSADVGELCDLECEW [SEQ ID NO 91], the IC50 was under 100 µM.
For FKPCWIANLGELCDMDDERSSE (disulfide 4-13 (inferred)) [SEQ ID NO 212], the IC50 was under 100 µM.
In the case of WKPCWMARLGELCDIEDTKVNA [SEQ ID NO 213], the IC50 is reported as under 100 µM.
For SLPCWIARLGELCDLDGYDGEE [SEQ ID NO 214], the IC50 was under 100 µM.
Binder FYPCWKARLGELCELEELRGYY [SEQ ID NO 215] has an IC50 of under 100 µM.
For WKPCWIADLGELCDLAPAWHEY [SEQ ID NO 216], the IC50 was under 100 µM.
For RLPCWRAQLGDLCELDWGLDMG [SEQ ID NO 217], the IC50 was under 100 µM.
In the case of SKPCWMAQLGELCDLDVWNLQM [SEQ ID NO 218], the IC50 is reported as under 100 µM.
Work on GYPCWLAQLGDYCDLDAGAPSW [SEQ ID NO 219] yielded an IC50 of under 100 µM.
With SWPCWMAQLGDLCDLDGSAGAS [SEQ ID NO 220] the IC50 was under 100 µM.
Work on WKPCWLAQLGELCDLERPSTTS [SEQ ID NO 221] yielded an IC50 of under 100 µM.
SGHWYPCWMARLGELCDMEERA [SEQ ID NO 92] was tested, and the IC50 was under 100 µM.
Work on WYSCGKAQLGELCDLDVESQPG [SEQ ID NO 222] yielded an IC50 of under 100 µM.
YVPCYMARLGELCELEANRPGQ [SEQ ID NO 223] showed an IC50 of under 100 µM.
SKPCWLAQLGDLCDFDWTAADH [SEQ ID NO 224] showed an IC50 of under 100 µM.
WFPCWMAQLGDLCELEPDSVPA [SEQ ID NO 225] was tested, and the IC50 was under 100 µM.
